Source: patent US20240117018A1

Tests used:
Assay in all cases: cell-based or functional assay
[1] = target: HIV-1 Env pseudovirus 1054_07_TC4_1499 (HIV-1)
[2] = target: HIV-1 Env pseudovirus 1056_10_TA11_1826 (HIV-1)
[3] = target: HIV-1 Env pseudovirus 246F C1G (HIV-1)
[4] = target: HIV-1 Env pseudovirus CNE21 (HIV-1)
[5] = target: HIV-1 Env pseudovirus HIV-0013095-2.11 (HIV-1)
[6] = target: HIV-1 Env pseudovirus HIV-001428-2.42 (HIV-1)
[7] = target: HIV-1 Env pseudovirus HIV-16055-2.3 (HIV-1)
[8] = target: HIV-1 Env pseudovirus HIV-16845-2.22 (HIV-1)
[9] = target: HIV-1 Env pseudovirus TRO.11 (HIV-1)
[10] = target: Env of HIV-1 pseudovirus 1054_07_TC4_1499 (HIV-1)
[11] = target: Env of HIV-1 pseudovirus 1394C9G1(Rev-) (HIV-1)
[12] = target: Env of HIV-1 pseudovirus 191084 B7-19 (HIV-1)
[13] = target: Env of HIV-1 pseudovirus 6244_13_B5_4576 (HIV-1)
[14] = target: Env of HIV-1 pseudovirus 928-28 (HIV-1)
[15] = target: Env of HIV-1 pseudovirus AC10.0.29 (HIV-1)
[16] = target: Env of HIV-1 pseudovirus BF1266.431a (HIV-1)
[17] = target: Env of HIV-1 pseudovirus CAP210.2.00.E8 (HIV-1)
[18] = target: Env of HIV-1 pseudovirus CAP45.2.00.G3 (HIV-1)
[19] = target: Env of HIV-1 pseudovirus Ce1176_A3 (HIV-1)
[20] = target: Env of HIV-1 pseudovirus Ce704809221_1B3 (HIV-1)
[21] = target: Env of HIV-1 pseudovirus HIV-001428-2.42 (HIV-1)
[22] = target: Env of HIV-1 pseudovirus HIV-16845-2.22 (HIV-1)
[23] = target: Env of HIV-1 pseudovirus Q259.d2.17 (HIV-1)
[24] = target: Env of HIV-1 pseudovirus T257-31 (HIV-1)
[25] = target: Env of HIV-1 pseudovirus THRO4156.18 (HIV-1)
[26] = target: Env of HIV-1 pseudovirus ZM109F.PB4 (HIV-1)
[27] = target: Env of HIV-1 pseudovirus ZM247v1(Rev-) (HIV-1)
[28] = target: Env of HIV-1 pseudovirus ZM249M.PL1 (HIV-1)

## N49P11 (antibody)
[1]
  IC50: 2.92 µg/mL
  IC80: 13.1 µg/mL
  MPI: 100
[2]
  IC50: 4.77 µg/mL
  IC80: 14.2 µg/mL
  MPI: 100
[3]
  IC50: 8.48 µg/mL
  IC80: 20.9 µg/mL
  MPI: 100
[4]
  IC50: 7.4 µg/mL
  IC80: 21.9 µg/mL
  MPI: 100
[5]
  IC50: 5.85 µg/mL
  IC80: 17.8 µg/mL
  MPI: 100
[6]
  IC50: 0.221 µg/mL
  IC80: 1.64 µg/mL
  MPI: 100
[7]
  IC50: 0.091 µg/mL
  IC80: 0.503 µg/mL
  MPI: 100
[8]
  IC50: 1.72 µg/mL
  IC80: 8.15 µg/mL
  MPI: 100
[9]
  IC50: 0.179 µg/mL
  IC80: 0.937 µg/mL
  MPI: 100

## 10E8 (antibody)
[10]
  IC50: 0.046 µg/mL
  IC80: 0.305 µg/mL
[11]
  IC50: 0.963 µg/mL
  IC80: 5.33 µg/mL
[12]
  IC50: 5.16 µg/mL
  IC80: > 10 µg/mL
[13]
  IC50: 0.086 µg/mL
  IC80: 0.809 µg/mL
[14]
  IC50: 0.384 µg/mL
  IC80: 1.96 µg/mL
[15]
  IC50: 0.132 µg/mL
  IC80: 1.53 µg/mL
[16]
  IC50: 2.69 µg/mL
  IC80: > 10 µg/mL
[17]
  IC50: 0.798 µg/mL
  IC80: 3.89 µg/mL
[18]
  IC50: 1.82 µg/mL
  IC80: > 10 µg/mL
[19]
  IC50: 0.867 µg/mL
  IC80: 3.92 µg/mL
[20]
  IC50: 0.058 µg/mL
  IC80: 0.319 µg/mL
[21]
  IC50: 0.809 µg/mL
  IC80: 7.3 µg/mL
[22]
  IC50: 0.068 µg/mL
  IC80: 0.495 µg/mL
[23]
  IC50: 4.59 µg/mL
  IC80: > 10 µg/mL
[24]
  IC50: 0.88 µg/mL
  IC80: 5.78 µg/mL
[25]
  IC50: 0.156 µg/mL
  IC80: 0.884 µg/mL
[26]
  IC50: 0.295 µg/mL
  IC80: 1.89 µg/mL
[27]
  IC50: 0.506 µg/mL
  IC80: 6.75 µg/mL
[28]
  IC50: 1.51 µg/mL
  IC80: 6.29 µg/mL

## 10-1074 (antibody)
[10]
  IC50: 0.129 µg/mL
  IC80: 0.563 µg/mL
[11]
  IC50: 0.05 µg/mL
  IC80: 0.191 µg/mL
[12]
  IC50: 0.032 µg/mL
  IC80: 0.128 µg/mL
[13]
  IC50: 0.202 µg/mL
  IC80: 0.922 µg/mL
[14]
  IC50: 0.847 µg/mL
  IC80: 4.7 µg/mL
[15]
  IC50: 0.022 µg/mL
  IC80: 0.11 µg/mL
[16]
  IC50: > 50 µg/mL
  IC80: > 50 µg/mL
[17]
  IC50: > 50 µg/mL
  IC80: > 50 µg/mL
[18]
  IC50: > 50 µg/mL
  IC80: > 50 µg/mL
[19]
  IC50: 0.019 µg/mL
  IC80: 0.07 µg/mL
[20]
  IC50: 0.139 µg/mL
  IC80: 0.696 µg/mL
[21]
  IC50: 0.044 µg/mL
  IC80: 0.261 µg/mL
[22]
  IC50: 1.17 µg/mL
  IC80: 5.83 µg/mL
[23]
  IC50: > 50 µg/mL
  IC80: > 50 µg/mL
[24]
  IC50: > 50 µg/mL
  IC80: > 50 µg/mL
[25]
  IC50: > 50 µg/mL
  IC80: > 50 µg/mL
[26]
  IC50: > 50 µg/mL
  IC80: > 50 µg/mL
[27]
  IC50: 0.042 µg/mL
  IC80: 0.186 µg/mL
[28]
  IC50: > 50 µg/mL
  IC80: > 50 µg/mL

## N49P7.2 (antibody)
[1]
  IC50: 2.04 µg/mL
  IC80: 10.7 µg/mL
  MPI: 99
[2]
  IC50: 0.114 µg/mL
  IC80: 0.771 µg/mL
  MPI: 100
[3]
  IC50: 0.049 µg/mL
  IC80: 0.192 µg/mL
  MPI: 100
[4]
  IC50: 48.3 µg/mL
  IC80: > 50 µg/mL
  MPI: 51
[5]
  IC50: 0.183 µg/mL
  IC80: 0.931 µg/mL
  MPI: 97
[6]
  IC50: 0.01 µg/mL
  IC80: 0.036 µg/mL
  MPI: 100
[7]
  IC50: 0.204 µg/mL
  IC80: 0.721 µg/mL
  MPI: 100
[8]
  IC50: 3.91 µg/mL
  IC80: 18.2 µg/mL
  MPI: 98
[9]
  IC50: 0.113 µg/mL
  IC80: 0.306 µg/mL
  MPI: 100

## PG9 (antibody)
[10]
  IC50: > 50 µg/mL
  IC80: > 50 µg/mL
[11]
  IC50: 0.029 µg/mL
  IC80: 0.114 µg/mL
[12]
  IC50: 0.043 µg/mL
  IC80: 0.202 µg/mL
[13]
  IC50: > 50 µg/mL
  IC80: > 50 µg/mL
[14]
  IC50: 0.101 µg/mL
  IC80: 0.45 µg/mL
[15]
  IC50: 0.117 µg/mL
  IC80: 0.845 µg/mL
[16]
  IC50: 0.026 µg/mL
  IC80: 0.088 µg/mL
[17]
  IC50: 0.04 µg/mL
  IC80: 0.173 µg/mL
[18]
  IC50: 0.007 µg/mL
  IC80: 0.029 µg/mL
[19]
  IC50: 0.014 µg/mL
  IC80: 0.044 µg/mL
[20]
  IC50: 0.037 µg/mL
  IC80: 0.137 µg/mL
[21]
  IC50: 0.101 µg/mL
  IC80: 0.25 µg/mL
[22]
  IC50: 4.4 µg/mL
  IC80: > 50 µg/mL
[23]
  IC50: 0.029 µg/mL
  IC80: 1.38 µg/mL
[24]
  IC50: 0.037 µg/mL
  IC80: 0.124 µg/mL
[25]
  IC50: 24.5 µg/mL
  IC80: > 50 µg/mL
[26]
  IC50: 0.256 µg/mL
  IC80: 6.69 µg/mL
[27]
  IC50: 0.112 µg/mL
  IC80: 0.323 µg/mL
[28]
  IC50: 0.166 µg/mL
  IC80: 1.41 µg/mL

## PG16 (antibody)
[10]
  IC50: > 50 µg/mL
  IC80: > 50 µg/mL
[11]
  IC50: 0.008 µg/mL
  IC80: 0.056 µg/mL
[12]
  IC50: 0.024 µg/mL
  IC80: 0.238 µg/mL
[13]
  IC50: > 50 µg/mL
  IC80: > 50 µg/mL
[14]
  IC50: 0.034 µg/mL
  IC80: 0.237 µg/mL
[15]
  IC50: 0.023 µg/mL
  IC80: 0.417 µg/mL
[16]
  IC50: 0.003 µg/mL
  IC80: 0.009 µg/mL
[17]
  IC50: 0.01 µg/mL
  IC80: 0.042 µg/mL
[18]
  IC50: 0.001 µg/mL
  IC80: 0.003 µg/mL
[19]
  IC50: 0.003 µg/mL
  IC80: 0.011 µg/mL
[20]
  IC50: 0.021 µg/mL
  IC80: 0.116 µg/mL
[21]
  IC50: 0.039 µg/mL
  IC80: 0.25 µg/mL
[22]
  IC50: 3.13 µg/mL
  IC80: > 50 µg/mL
[23]
  IC50: 0.065 µg/mL
  IC80: 45.9 µg/mL
[24]
  IC50: 0.007 µg/mL
  IC80: 0.021 µg/mL
[25]
  IC50: 6.83 µg/mL
  IC80: > 50 µg/mL
[26]
  IC50: 7.03 µg/mL
  IC80: > 50 µg/mL
[27]
  IC50: 0.016 µg/mL
  IC80: 0.189 µg/mL
[28]
  IC50: 0.127 µg/mL
  IC80: 18.1 µg/mL

## N49P18.1 (antibody)
[1]
  IC50: > 50 µg/mL
  IC80: > 50 µg/mL
  MPI: 0
[2]
  IC50: 30.5 µg/mL
  IC80: > 50 µg/mL
  MPI: 62
[3]
  IC50: 3.4 µg/mL
  IC80: 20.2 µg/mL
  MPI: 97
[4]
  IC50: 7.93 µg/mL
  IC80: 29.2 µg/mL
  MPI: 95
[5]
  IC50: > 50 µg/mL
  IC80: > 50 µg/mL
  MPI: 48
[6]
  IC50: 1.13 µg/mL
  IC80: 8.31 µg/mL
  MPI: 100
[7]
  IC50: 8.04 µg/mL
  IC80: 22.6 µg/mL
  MPI: 97
[8]
  IC50: > 50 µg/mL
  IC80: > 50 µg/mL
  MPI: 23
[9]
  IC50: 4.25 µg/mL
  IC80: 11.7 µg/mL
  MPI: 99
